In patent US20260146077A1 (US Dept. of Health and Human Services, published 2026):
Where two headings read alike, the source gives them in different places.

Columns and labels:
Assay in all cases: cell-based or functional assay
[1] = target: T1, SARS-CoV-2 spike protein, BA.1 (SARS-CoV-2, UniProt P0DTC2 14-1273)
[2] = target: T2, SARS-CoV-2 spike protein, B.1.617.2 (SARS-CoV-2, UniProt P0DTC2 14-1273)
[3] = target: T3, SARS-CoV-2 spike protein, B.1.351 (SARS-CoV-2, UniProt P0DTC2 14-1273)
[4] = target: T1, SARS-CoV-2 spike protein, BA.1; remark: listed apart in the source
[5] = target: SARS-CoV-2 spike protein, BA.2.12.1 (SARS-CoV-2, UniProt P0DTC2 14-1273)
[6] = target: T1, SARS-CoV-2 spike protein, BA.1; remark: listed apart in the source
[7] = target: T2, SARS-CoV-2 spike protein, B.1.617.2; remark: listed apart in the source
[8] = target: T3, SARS-CoV-2 spike protein, B.1.351; remark: listed apart in the source
[9] = target: SARS-CoV-2 spike protein, BA.1.1 (SARS-CoV-2, UniProt P0DTC2 14-1273)
[10] = target: SARS-CoV-2 spike protein, BA.2 (SARS-CoV-2, UniProt P0DTC2 14-1273)

| Binder | BA.1 neutralization, fold improvement over A19-58.1 [1] | neutralization IC50 [2] | neutralization IC80 [2] | neutralization IC50 [3] | neutralization IC80 [3] | neutralization IC50 [4] | neutralization IC80 [4] | neutralization IC50 [5] | neutralization IC80 [5] | neutralization IC50 [6] | neutralization IC80 [6] | BA.1 neutralization, fold improvement over B1-182.1 [1] | also measured |
| --- | --- | --- | --- | --- | --- | --- | --- | --- | --- | --- | --- | --- | --- |
| A23-58.1HC/58.1LC_93VGLT (antibody, V domains shown) VH: not shown VL: EIVLTQSPGTLSLSPGERATLSCRASQSVSSSYLAWYQQKPGQAPRLLIYSASSRATGIPDRFSGSGSGTDFTLTISRLEPEDFAVYFCQQYVGLTWTFGQGTKVEIK | > 20 fold | 0.0009 µg/mL | 0.0024 µg/mL | 0.001 µg/mL | 0.0032 µg/mL | 0.0048 µg/mL | 0.0187 µg/mL | 0.0091 µg/mL | 0.0431 µg/mL | – | – | – | – |
| B1-182.1HC/182.1LC_93VGLT (antibody, V domains shown) VH: not shown VL: EIVLTQSPGTLSLSPGERATLSCRASQSVSSSYLAWYQQKPGQAPRLLIYGASSRATGFPDRFSGSGSGTDFTLTISRLEPEDFAVYYCQQYVGLTWTFGQGTKVEIR | – | – | – | – | – | – | – | – | – | 0.297 µg/mL | 3.19 µg/mL | – | – |
| A23-58.1HC_Y100cA/58.1LC_93VGLT (antibody, V domains shown) VH: not shown VL: EIVLTQSPGTLSLSPGERATLSCRASQSVSSSYLAWYQQKPGQAPRLLIYSASSRATGIPDRFSGSGSGTDFTLTISRLEPEDFAVYFCQQYVGLTWTFGQGTKVEIK | – | – | – | – | – | 0.306 µg/mL | 2.54 µg/mL | 0.48 µg/mL | 2.05 µg/mL | – | – | – | – |
| B1-182.1HC/182.1LC_95LTG (antibody, V domains shown) VH: not shown VL: EIVLTQSPGTLSLSPGERATLSCRASQSVSSSYLAWYQQKPGQAPRLLIYGASSRATGFPDRFSGSGSGTDFTLTISRLEPEDFAVYYCQQYGNLTGWTFGQGTKVEIR | – | – | – | – | – | – | – | – | – | 0.0206 µg/mL | 0.118 µg/mL | > 9 fold | neutralization IC50 [7]: 0.0068 µg/mL; neutralization IC80 [7]: 0.0151 µg/mL; neutralization IC50 [8]: 0.0072 µg/mL; neutralization IC80 [8]: 0.014 µg/mL |
| B1-182.1HC/182.1LC_96TG (antibody, V domains shown) VH: not shown VL: EIVLTQSPGTLSLSPGERATLSCRASQSVSSSYLAWYQQKPGQAPRLLIYGASSRATGFPDRFSGSGSGTDFTLTISRLEPEDFAVYYCQQYGNSTGWTFGQGTKVEIR | – | – | – | – | – | – | – | – | – | 0.0206 µg/mL | 0.0857 µg/mL | > 9 fold | neutralization IC50 [7]: 0.004 µg/mL; neutralization IC80 [7]: 0.0084 µg/mL; neutralization IC50 [8]: 0.0044 µg/mL; neutralization IC80 [8]: 0.0143 µg/mL |
| B1-182.1HC_F100cS/182.1LC_94GLTG (antibody, V domains shown) VH: not shown VL: EIVLTQSPGTLSLSPGERATLSCRASQSVSSSYLAWYQQKPGQAPRLLIYGASSRATGFPDRFSGSGSGTDFTLTISRLEPEDFAVYYCQQYGGLTGWTFGQGTKVEIR | – | – | – | – | – | – | – | – | – | 0.0042 µg/mL | 0.0167 µg/mL | > 46 fold | neutralization IC50 [7]: 0.0018 µg/mL; neutralization IC80 [7]: 0.0052 µg/mL; neutralization IC50 [8]: 0.0022 µg/mL; neutralization IC80 [8]: 0.0049 µg/mL |
| B1-182.1HC/182.1LC_93VGLTG (antibody, V domains shown) VH: not shown VL: EIVLTQSPGTLSLSPGERATLSCRASQSVSSSYLAWYQQKPGQAPRLLIYGASSRATGFPDRFSGSGSGTDFTLTISRLEPEDFAVYYCQQYVGLTGWTFGQGTKVEIR | – | – | – | – | – | – | – | – | – | 0.0115 µg/mL | 0.0396 µg/mL | > 17 fold | neutralization IC50 [7]: 0.0014 µg/mL; neutralization IC80 [7]: 0.0059 µg/mL; neutralization IC50 [8]: 0.0009 µg/mL; neutralization IC80 [8]: 0.0044 µg/mL |
| A23-58.1HC/58.1LC_95LTG (antibody, V domains shown) VH: not shown VL: EIVLTQSPGTLSLSPGERATLSCRASQSVSSSYLAWYQQKPGQAPRLLIYSASSRATGIPDRFSGSGSGTDFTLTISRLEPEDFAVYFCQQYGTLTGWTFGQGTKVEIK | 5 fold | 0.0028 µg/mL | 0.0116 µg/mL | 0.0035 µg/mL | 0.0091 µg/mL | 0.0214 µg/mL | 0.0454 µg/mL | – | – | – | – | – | – |
| A23-58.1HC_Y100cA/S2E12LC (antibody, V domains shown) VH: not shown VL: DIVLTQTPGTLSLSPGERATLSCRASQSVSSSYLAWYQQKPGQAPRLLIYGASSRATGIPDRFSGSGSGTDFTLTISRLEPEDFAVYYCQQYVGLTGWTFGQGTKVEIK | 20 fold | 0.0029 µg/mL | 0.0078 µg/mL | 0.0026 µg/mL | 0.0059 µg/mL | 0.0049 µg/mL | 0.0261 µg/mL | 0.0351 µg/mL | 0.142 µg/mL | – | – | – | neutralization IC50 [9]: 0.0044 µg/mL; neutralization IC80 [9]: 0.0131 µg/mL; neutralization IC50 [10]: 0.0084 µg/mL; neutralization IC80 [10]: 0.0384 µg/mL |
| A23-58.1HC_Y100cA/58.1LC_93VGLTG (antibody, V domains shown) VH: not shown VL: EIVLTQSPGTLSLSPGERATLSCRASQSVSSSYLAWYQQKPGQAPRLLIYSASSRATGIPDRFSGSGSGTDFTLTISRLEPEDFAVYFCQQYVGLTGWTFGQGTKVEIK | > 6 fold | 0.003 µg/mL | 0.0098 µg/mL | 0.0011 µg/mL | 0.0043 µg/mL | 0.0155 µg/mL | 0.0419 µg/mL | 0.0242 µg/mL | 0.0621 µg/mL | – | – | – | – |
| A23-58.1HC/58.1LC_96TG (antibody, V domains shown) VH: not shown VL: EIVLTQSPGTLSLSPGERATLSCRASQSVSSSYLAWYQQKPGQAPRLLIYSASSRATGIPDRFSGSGSGTDFTLTISRLEPEDFAVYFCQQYGTSTGWTFGQGTKVEIK | > 3 fold | 0.0054 µg/mL | 0.0131 µg/mL | 0.0027 µg/mL | 0.0066 µg/mL | 0.0294 µg/mL | 0.0658 µg/mL | – | – | – | – | – | – |
| B1-182.1HC_F100cS/182.1LC_93VGLTG (antibody, V domains shown) VH: not shown VL: EIVLTQSPGTLSLSPGERATLSCRASQSVSSSYLAWYQQKPGQAPRLLIYGASSRATGFPDRFSGSGSGTDFTLTISRLEPEDFAVYYCQQYVGLTGWTFGQGTKVEIR | – | – | – | – | – | – | – | – | – | – | 0.0909 µg/mL | > 9 fold | pseudovirus neutralization IC50 [1]: 0.0228 µg/mL |
| B1-182.1HC/182.1LC_94GLTG (antibody, V domains shown) VH: not shown VL: EIVLTQSPGTLSLSPGERATLSCRASQSVSSSYLAWYQQKPGQAPRLLIYGASSRATGFPDRFSGSGSGTDFTLTISRLEPEDFAVYYCQQYGGLTGWTFGQGTKVEIR | – | – | – | – | – | – | – | – | – | 0.0142 µg/mL | 0.0623 µg/mL | > 13 fold | neutralization IC50 [7]: 0.0041 µg/mL; neutralization IC80 [7]: 0.0086 µg/mL; neutralization IC50 [8]: 0.0023 µg/mL; neutralization IC80 [8]: 0.0063 µg/mL |
| A23-58.1HC/58.1LC_F88Y-94GLTG (antibody, V domains shown) VH: not shown VL: EIVLTQSPGTLSLSPGERATLSCRASQSVSSSYLAWYQQKPGQAPRLLIYSASSRATGIPDRFSGSGSGTDFTLTISRLEPEDFAVYYCQQYGGLTGWTFGQGTKVEIK | > 3 fold | 0.0063 µg/mL | 0.0188 µg/mL | 0.0044 µg/mL | 0.0116 µg/mL | 0.0261 µg/mL | 0.0919 µg/mL | 0.0417 µg/mL | 0.0956 µg/mL | – | – | – | – |
| A23-58.1HC/58.1LC_F88Y-93VGLTG (antibody, V domains shown) VH: not shown VL: EIVLTQSPGTLSLSPGERATLSCRASQSVSSSYLAWYQQKPGQAPRLLIYSASSRATGIPDRFSGSGSGTDFTLTISRLEPEDFAVYYCQQYVGLTGWTFGQGTKVEIK | > 10 fold | 0.006 µg/mL | 0.0162 µg/mL | 0.0023 µg/mL | 0.0088 µg/mL | 0.0093 µg/mL | 0.0426 µg/mL | 0.0099 µg/mL | 0.0422 µg/mL | – | – | – | – |
| A23-58.1HC/S2E12LC (antibody, V domains shown) VH: not shown VL: DIVLTQTPGTLSLSPGERATLSCRASQSVSSSYLAWYQQKPGQAPRLLIYGASSRATGIPDRFSGSGSGTDFTLTISRLEPEDFAVYYCQQYVGLTGWTFGQGTKVEIK | 10 fold | 0.0022 µg/mL | 0.0076 µg/mL | 0.0035 µg/mL | 0.0079 µg/mL | 0.0098 µg/mL | 0.0311 µg/mL | 0.0566 µg/mL | 0.201 µg/mL | – | – | – | neutralization IC50 [9]: 0.0038 µg/mL; neutralization IC80 [9]: 0.0158 µg/mL; neutralization IC50 [10]: 0.0067 µg/mL; neutralization IC80 [10]: 0.0269 µg/mL |
| A23-58.1HC_Y100cA/58.1LC_94GLTG (antibody, V domains shown) VH: not shown VL: EIVLTQSPGTLSLSPGERATLSCRASQSVSSSYLAWYQQKPGQAPRLLIYSASSRATGIPDRFSGSGSGTDFTLTISRLEPEDFAVYFCQQYGGLTGWTFGQGTKVEIK | > 25 fold | 0.0131 µg/mL | 0.0165 µg/mL | 0.0023 µg/mL | 0.0063 µg/mL | 0.0038 µg/mL | 0.016 µg/mL | 0.0193 µg/mL | 0.051 µg/mL | – | – | – | – |
| A23-58.1HC/58.1LC_96+G (antibody, V domains shown) VH: not shown VL: EIVLTQSPGTLSLSPGERATLSCRASQSVSSSYLAWYQQKPGQAPRLLIYSASSRATGIPDRFSGSGSGTDFTLTISRLEPEDFAVYFCQQYGTSPGWTFGQGTKVEIK | – | 0.0046 µg/mL | 0.0112 µg/mL | 0.0105 µg/mL | 0.0292 µg/mL | 0.133 µg/mL | 0.917 µg/mL | – | – | – | – | – | – |
